Key:
[1] = system: free fat cells (adipocytes); test: Adipocyte / free fat cell (FFC) assay, 3H glucose incorporation into lipid; settings: for FFC Pot., agonist or antagonist: Table 8, letter before the potency
Experimental: Incorporation of ^3H into the lipid phase was determined by partitioning of lipid phase into a scintillant mixture, which excludes water-soluble ^3H products.

[2] = target: recombinant human insulin receptor (Homo sapiens, UniProt P06213); test: Substrate phosphorylation assay (HIR kinase); type: biochemical; settings: Table 8, HIR kinase assay
Experimental: Subsequently, a 2000-fold dilution of horseradish peroxidase (HRPO) conjugated phosphotyrosine antibody (Transduction Laboratories, Cat. No. E120H) in TBS was added. The plates were incubated for 30 min and washed 3 times with TBS. TMB (3,3′,5,5′-tetramethylbenzidine; Kem-En-Tec, Copenhagen, Denmark) was added. One substrate from Kem-En-Tec was added. After 10-15 min, the reaction was stopped by the addition of 1% acetic acid. The absorbance, representing the extent of substrate phosphorylation, was measured in a spectrophotometer at a wavelength of 450 nm.

[3] = target: T1, human insulin receptor (HIR) (Homo sapiens, UniProt P06213); test: Insulin receptor binding, competition with 125I-labeled insulin (HIR Kd); settings: insulin competition
T1 construct: made in house

[4] = target: T2, insulin receptor construct transfected into 32D cells (Homo sapiens, UniProt P06213); test: IR autophosphorylation assay in IR transfected 32D cells (ELISA); type: cell-based; settings: tested as MBP fusion peptides
T2 construct: expressed in transfected cells; host or cells: 32D cells (clone 969)
Experimental: The IR transfected 32D cells were seeded at […] in 96-well tissue culture plates and incubated overnight at 37° C. […] The culture media was decanted from the cell culture plates, and the diluted samples were added to the cells. The plates were incubated at 37° C. for 30 min. The stimulation medium was decanted from the plates, and cell lysis buffer (50 mM HEPES pH 7.2, 150 mM NaCl, 0.5% Triton X-100, 1 mM AEBSF, 10 KIU/ml aprotinin, 50 μM leupeptin, and 2 mM sodium orthovanadate) was added. The cells were lysed for 30 min.
In the ELISA portion of the assay, the cell lysates were added to the BSA-blocked anti-IR unit mAb (Upstate Biotechnology, Lake Placid, N.Y.) coated ELISA plates. After a 2 h incubation, the plates were washed 6 times with PBST and biotinylated anti-phosphotyrosine antibody (Upstate Biotechnology) is added. After another 2 h incubation, the plates were again washed 6 times. Streptavidin-Eu was then added, and the plates were incubated for 1 h. After washing the plates again, EG&G Wallac enhancement solution (100 mM acetone-potassium hydrogen pthalate, pH 3.2; 15 mM 2-naphtyltrifluoroacetate; 50 mM tri(n-octyl)-phosphine oxide; 0.1% Triton X-100) was added into each well, and the plates were placed onto a shaker for 20 min at RT.

MCF-7 cells = test: MCF-7 cell proliferation assay, IGF-1R agonist format; type: cell-based, human; settings: MCF-7 and MiaPaCa cells (Tables 27-28)
From the text: ; FIGS. 65A-65F), and were used for subsequent experiments.

IR = IR activity (agonist/antagonist) of MBP-peptide fusions, Table 10; test not named; settings: MBP-peptide fusion proteins; one symbol per monomer unit

B1: MADYKDDDDKGSLDESFYDWFERQLGKKGGSGGSWLDQEWAWVQCEVYGRGCPSAAA(ETAG)PG (protein)
chain: MADYKDDDDKGSLDESFYDWFERQLGKKGGSGGSWLDQEWAWVQCEVYGRGCPSAAAGAPVPYPDPLEPRPG
modifications: E-tag
activity in the free fat cell (FFC) assay / at IR, in words [1]: active as specific insulin receptor antagonists
FFC Pot., agonist or antagonist [1]: N
activity in the FFC assay using the standard concentration of insulin [1]: inactive
activity in the FFC assay in the presence of a stimulating concentration of insulin [1]: antagonists
Kinase Pot. (nM) [2]: Inactive
IR / HIR binding affinity compared with monomer or homodimer peptides, in words [3]: substantially higher (several orders of magnitude) affinity

B2: MADYKDDDDKGSLDESFYDWFERQLGKKGGSGGSGGSGGSWLDQEWAWVQCEVYGRGCPSAAA(ETAG)PG (protein)
chain: MADYKDDDDKGSLDESFYDWFERQLGKKGGSGGSGGSGGSWLDQEWAWVQCEVYGRGCPSAAAGAPVPYPDPLEPRPG
modifications: E-tag
activity in the free fat cell (FFC) assay / at IR, in words [1]: active as specific insulin receptor antagonists
FFC Pot., agonist or antagonist [1]: N
activity in the FFC assay using the standard concentration of insulin [1]: inactive
activity in the FFC assay in the presence of a stimulating concentration of insulin [1]: antagonists
Kinase Pot. (nM) [2]: Inactive
IR / HIR binding affinity compared with monomer or homodimer peptides, in words [3]: substantially higher (several orders of magnitude) affinity

B3: H2C-9aa-H2C: MBP fusion, H2C dimer (Site 1-Site 1) with 9 amino acid linker (protein)
chain: NNNNLGIEGRISEFIEGRAQPAMAFHENFYDWFVRQVSGGSGGSGGSFHENFYDWFVRQVSAAAGAPVPYPDPLEPRAA
modifications: left off: large carriers; small tags and cut ends
stimulation of autophosphorylation of IR [4]: active

B4: H2C-3aa-H2C: MBP fusion, H2C dimer (Site 1-Site 1) with 3 amino acid linker (protein)
chain: NNNNLGIEGRISEFIEGRAQPAMAFHENFYDWFVRQVSGGSFHENFYDWFVRQVSAAAGAPVPYPDPLEPRAA
modifications: left off: large carriers; small tags and cut ends
stimulation of autophosphorylation of IR [4]: active

B5: RP30-IGF-12-D112: dimer peptide (Site 1-Site 1) (protein)
chain: ADYKDSFYSCLESLVNGGAERSDGQWEGCRGGSGGSGGSGGSCWARPCGDAANFYDWFVQQASKKAAAGAPVPYPDPLEPRPG
IGF-1R agonist activity, proliferation of MCF-7 and MiaPaCa cells, in words (MCF-7 cells): IGF-1R agonist activity

B6: D112-12-RP30-IGF: dimer peptide (Site 1-Site 1) (protein)
chain: ADYKDCWARPCGDAANFYDWFVQQASKKGGSGGSGGSGGSSFYSCLESLVNGGAERSDGQWEGCRAAAGAPVPYPDPLEPRPG
IGF-1R agonist activity, proliferation of MCF-7 and MiaPaCa cells, in words (MCF-7 cells): IGF-1R agonist activity

B7: 463 (protein)
chain: B4 chain
modifications: MBP fusion
Act. (activity) (IR): A—A

From patent US20070004634A1 (Novo Nordisk A/S, priority 1998, published 2007)
